# Laboratory results: publication PMC7264293, “Multi-site-mediated entwining of the linear WIR-motif around WIPI β-propellers for autophagy” (Nature Communications, 2020)
# Molecular target: WIPI3-Δloop (human), Q5MNZ6
# Assay: ITC; WIPI3 proteins in the sample cell, GB1-tagged ATG2A fragments in the syringe; 25 °C; 50 mM Tris-HCl pH 8.0, 100 mM NaCl, 1 mM EDTA, 1 mM DTT; model of one binding site
# Sequence of WIPI3-Δloop (human), Q5MNZ6 (Q5MNZ6 other isoform, or with tags, fused parts or gaps mutant): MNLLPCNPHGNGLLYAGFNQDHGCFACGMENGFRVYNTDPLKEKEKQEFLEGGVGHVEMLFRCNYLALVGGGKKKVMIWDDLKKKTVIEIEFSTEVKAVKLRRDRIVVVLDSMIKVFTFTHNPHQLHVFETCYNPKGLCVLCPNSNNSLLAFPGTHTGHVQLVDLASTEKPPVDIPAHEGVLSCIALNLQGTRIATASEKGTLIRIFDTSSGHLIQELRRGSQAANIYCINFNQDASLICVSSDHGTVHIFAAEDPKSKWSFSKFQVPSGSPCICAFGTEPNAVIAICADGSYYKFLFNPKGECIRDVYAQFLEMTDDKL
binder,measurement,value
GPIVVRDGYFSRPIGSTD (modifications not checked) [GB1-tagged WIR-peptide ΔN-strand],Kd,64.3 µM
